Literature values as cited in publication PMC12869367.

Molecular target: DMBT1S8L (Homo sapiens) (UniProt Q9UGM3)
UniProt Q9UGM3, sequence (Q9UGM3 20-2413): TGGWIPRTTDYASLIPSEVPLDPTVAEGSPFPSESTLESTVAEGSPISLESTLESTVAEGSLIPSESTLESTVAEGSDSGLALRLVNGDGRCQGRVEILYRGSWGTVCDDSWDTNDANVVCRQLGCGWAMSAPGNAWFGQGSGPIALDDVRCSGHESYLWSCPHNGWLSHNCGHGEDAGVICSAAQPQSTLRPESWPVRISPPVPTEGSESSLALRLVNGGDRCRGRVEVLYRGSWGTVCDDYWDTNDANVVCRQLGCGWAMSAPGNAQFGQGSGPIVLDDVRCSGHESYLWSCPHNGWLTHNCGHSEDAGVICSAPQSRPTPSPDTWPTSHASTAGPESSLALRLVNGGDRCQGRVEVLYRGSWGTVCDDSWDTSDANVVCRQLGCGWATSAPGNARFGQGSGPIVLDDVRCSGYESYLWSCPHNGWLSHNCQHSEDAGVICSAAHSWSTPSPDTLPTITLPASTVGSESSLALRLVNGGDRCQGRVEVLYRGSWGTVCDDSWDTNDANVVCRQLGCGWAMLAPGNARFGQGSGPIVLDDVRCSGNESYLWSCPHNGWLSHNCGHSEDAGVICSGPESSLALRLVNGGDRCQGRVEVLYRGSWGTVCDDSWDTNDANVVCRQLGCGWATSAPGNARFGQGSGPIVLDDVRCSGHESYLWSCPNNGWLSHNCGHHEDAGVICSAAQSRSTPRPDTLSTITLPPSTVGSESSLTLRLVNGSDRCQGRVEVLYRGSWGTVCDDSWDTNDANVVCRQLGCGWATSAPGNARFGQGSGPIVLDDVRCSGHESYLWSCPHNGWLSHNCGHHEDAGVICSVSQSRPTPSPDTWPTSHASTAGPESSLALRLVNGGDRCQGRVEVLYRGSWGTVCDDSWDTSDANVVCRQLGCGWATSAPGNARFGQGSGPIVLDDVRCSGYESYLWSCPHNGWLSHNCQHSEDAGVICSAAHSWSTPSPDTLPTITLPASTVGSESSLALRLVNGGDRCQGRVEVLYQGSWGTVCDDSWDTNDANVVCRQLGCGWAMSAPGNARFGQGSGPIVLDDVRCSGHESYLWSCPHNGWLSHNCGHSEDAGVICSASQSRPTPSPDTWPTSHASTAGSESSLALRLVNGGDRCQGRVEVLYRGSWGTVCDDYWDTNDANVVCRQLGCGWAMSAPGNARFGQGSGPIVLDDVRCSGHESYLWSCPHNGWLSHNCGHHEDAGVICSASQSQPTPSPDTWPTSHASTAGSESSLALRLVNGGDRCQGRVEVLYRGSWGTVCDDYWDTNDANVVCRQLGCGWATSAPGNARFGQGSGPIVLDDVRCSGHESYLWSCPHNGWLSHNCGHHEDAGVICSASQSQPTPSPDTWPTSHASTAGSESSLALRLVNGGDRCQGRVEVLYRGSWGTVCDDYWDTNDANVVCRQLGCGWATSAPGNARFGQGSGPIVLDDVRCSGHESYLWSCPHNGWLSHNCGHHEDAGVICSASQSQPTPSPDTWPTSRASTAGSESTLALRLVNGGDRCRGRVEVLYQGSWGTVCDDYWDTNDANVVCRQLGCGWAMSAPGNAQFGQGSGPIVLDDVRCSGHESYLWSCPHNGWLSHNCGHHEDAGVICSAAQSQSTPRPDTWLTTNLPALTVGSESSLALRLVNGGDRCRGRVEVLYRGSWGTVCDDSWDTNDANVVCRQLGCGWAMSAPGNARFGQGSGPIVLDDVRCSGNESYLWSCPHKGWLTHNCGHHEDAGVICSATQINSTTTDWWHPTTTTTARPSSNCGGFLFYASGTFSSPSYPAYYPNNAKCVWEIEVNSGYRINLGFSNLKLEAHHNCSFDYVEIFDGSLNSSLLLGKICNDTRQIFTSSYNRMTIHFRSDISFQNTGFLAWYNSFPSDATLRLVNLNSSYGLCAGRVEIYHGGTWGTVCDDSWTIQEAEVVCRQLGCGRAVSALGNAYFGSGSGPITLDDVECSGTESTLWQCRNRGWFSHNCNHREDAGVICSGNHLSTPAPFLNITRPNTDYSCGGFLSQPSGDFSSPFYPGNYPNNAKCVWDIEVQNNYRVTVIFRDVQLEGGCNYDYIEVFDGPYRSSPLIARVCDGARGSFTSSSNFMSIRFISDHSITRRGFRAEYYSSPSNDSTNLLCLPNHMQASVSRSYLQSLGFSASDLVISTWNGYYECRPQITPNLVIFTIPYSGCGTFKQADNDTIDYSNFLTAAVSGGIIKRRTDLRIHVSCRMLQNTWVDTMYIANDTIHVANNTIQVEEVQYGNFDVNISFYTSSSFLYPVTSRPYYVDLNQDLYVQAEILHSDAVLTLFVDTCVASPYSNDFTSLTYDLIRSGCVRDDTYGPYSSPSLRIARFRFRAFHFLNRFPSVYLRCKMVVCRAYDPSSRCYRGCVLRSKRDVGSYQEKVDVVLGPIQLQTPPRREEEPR

## Siglec-8-Fc (from UniProt Q9NYZ4)
  Kd: 0.06 nM
